Target: T1, BMPR2 (human, on breast cancer cells) (human, UniProt Q13873 27-1038)
T1 construct: whole, on cells; The PDX cells are described as human breast tumor cells; also called BMP Receptor 2
T1 sequence (looked up): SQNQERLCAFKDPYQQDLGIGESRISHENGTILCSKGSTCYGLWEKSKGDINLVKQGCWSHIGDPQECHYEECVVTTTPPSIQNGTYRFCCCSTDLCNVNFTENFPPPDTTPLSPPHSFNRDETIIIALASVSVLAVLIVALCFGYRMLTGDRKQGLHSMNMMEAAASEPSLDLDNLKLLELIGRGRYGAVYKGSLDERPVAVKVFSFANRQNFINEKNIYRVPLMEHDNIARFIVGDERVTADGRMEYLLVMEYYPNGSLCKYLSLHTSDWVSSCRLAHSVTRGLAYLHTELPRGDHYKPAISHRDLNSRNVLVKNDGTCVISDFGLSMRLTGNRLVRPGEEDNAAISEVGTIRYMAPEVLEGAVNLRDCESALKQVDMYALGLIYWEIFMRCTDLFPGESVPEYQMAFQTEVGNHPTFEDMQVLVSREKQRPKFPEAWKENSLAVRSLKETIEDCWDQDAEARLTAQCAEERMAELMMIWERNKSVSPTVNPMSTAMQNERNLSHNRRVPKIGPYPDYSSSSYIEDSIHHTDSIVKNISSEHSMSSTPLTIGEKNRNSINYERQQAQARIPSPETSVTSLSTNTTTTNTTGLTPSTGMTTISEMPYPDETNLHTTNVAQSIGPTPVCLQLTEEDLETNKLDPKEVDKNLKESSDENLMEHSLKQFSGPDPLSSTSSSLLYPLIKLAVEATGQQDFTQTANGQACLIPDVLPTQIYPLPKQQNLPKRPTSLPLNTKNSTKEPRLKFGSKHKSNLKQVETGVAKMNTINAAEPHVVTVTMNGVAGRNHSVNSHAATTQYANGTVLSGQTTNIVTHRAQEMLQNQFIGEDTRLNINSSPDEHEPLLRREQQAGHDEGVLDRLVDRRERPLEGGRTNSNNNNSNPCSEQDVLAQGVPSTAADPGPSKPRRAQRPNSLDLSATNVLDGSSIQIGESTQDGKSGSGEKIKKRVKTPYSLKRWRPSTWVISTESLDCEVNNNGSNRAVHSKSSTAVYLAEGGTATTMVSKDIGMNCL
Assay: Proximity Ligation on sorted breast cancer PDX cells
From the text: Next, we examined the interaction of LEFTY-BMPR2 and BMP7-BMPR2 in different subpopulations of breast cancer cells. Tumor cells were isolated from 3 established breast cancer PDXs using flow cytometry. These models were characterized to follow the cancer stem cell paradigm. The cells were sorted based on EpCAM and CD49f cell surface markers. Different protein-protein interactions were quantified by Proximity Ligation and the cells were also simultaneously stained for pSMAD2 or pSMAD5. As shown in FIGS. 14A-14D, in the tumorigenic population the LEFTY-BMPR2 interaction is predominant, whereas the BMP7-BMPR2 interaction is predominant in non-tumorigenic population.

B1: BMP7 (human, endogenous in breast cancer PDX cells) (ligand, UniProt P18075 293-431, looked up)
chain: STGSKQRSQNRSKTPKNQEALRMANVAENSSSDQRQACKKHELYVSFRDLGWQDWIIAPEGYAAYYCEGECAFPLNSYMNATNHAIVQTLVHFINPETVPKPCCAPTQLNAISVLYFDDSSNVILKKYRNMVVRACGCH
B1: binds.
